± gives the half width of the 95% confidence interval.
Assays:
[1] = folding stability dG unfold from chymotrypsin proteolysis; higher = more stable
In short: (§1)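 Unfolding free energy was derived, per protease or combined, against a sequence-predicted unfolded-state K50 and a shared folded-state K50, starting from K50 inferred by Bayesian fitting of sequencing counts. Digestion with trypsin and chymotrypsin was carried out on designed mini-proteins under 80 residues without cysteine in a PA-tagged cDNA display construct. Only designs with AlphaFold2 dimer inter-PAE above 15 were kept.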

[2] = folding stability dG unfold (combined trypsin and chymotrypsin); higher = more stable
In short: as §1

[3] = folding stability dG unfold from trypsin proteolysis; higher = more stable
In short: as §1

Row | Sequence | folding stability dG unfold [1] | folding stability dG unfold [2] | folding stability dG unfold [3]
1 | SAGGSFDPVEITTLEDGTIKILAKDPNTNKLFITTLKAKSIKTSSLGNGKTITTIPHEKVEESEELPSAGGS [r16_615_JUSTAS] | -0.0729 ± 0.51 kcal/mol | -0.554 ± 0.67 kcal/mol | -0.795 ± 0.66 kcal/mol
2 | SAGGSFEFKAEVFYDKEKDIYYVKIPYILKNTGKIIPIVKKVKAGDPIPVEKLAEKIAKELEELGISAGGSA [r2_221_TrMRF] | 1.89 ± 0.066 kcal/mol | 1.36 ± 0.1 kcal/mol | 0.357 ± 0.079 kcal/mol
3 | SAGGSFEVEVEVERYPEENYYYVKIPIRLPNNGKKIPLDVPVPADDPEPAEKWAKFIAKELAKQGISAGGSA [r2_221_TrROS] | -0.1 ± 0.27 kcal/mol | -0.1 ± 0.23 kcal/mol | -0.0866 ± 0.14 kcal/mol
4 | SAGGSFHDLAKELAKKRGLKKVSINMHPEDNSMNINIQNPEKGRPVQGNIPMEDMTPETVLDQIENILESAG [r5_896_TrROS] | 0.297 ± 0.28 kcal/mol | -0.0716 ± 0.24 kcal/mol | -1.04 ± 0.69 kcal/mol
5 | SAGGSFVVIEPTADGVRIVLEDDGALREVPVSPEVAAALAANPDLEGVVRSLLPEGHPIERIAAVPGSAGGS [r16_567_TrMRF] | -0.476 ± 0.17 kcal/mol | -0.451 ± 0.2 kcal/mol | -0.755 ± 0.24 kcal/mol
6 | SAGGSGEVRPLELEFTLPNGAKIKITLHVYPDGTVKVEARIEFGGEYLELRFEFEGEKVPLDFPDFGSAGGS [r16_523_TrMRF] | 3.73 ± 0.11 kcal/mol | 3.73 ± 0.2 kcal/mol | 3.58 ± 0.13 kcal/mol
7 | SAGGSGIEAAILEAVEKGLNPVELTFRLPEDGKLVVLKVEVLDVLDGGAIVKVEMEVYDPENPKKISAGGSA [r2_420_TrMRF] | 2.14 ± 0.063 kcal/mol | 1.83 ± 0.1 kcal/mol | 1.06 ± 0.089 kcal/mol
8 | SAGGSGMIKTETTVTITFPGGETVSFPATVTYDPETGKTEVEVNLPEAALAELKERAPDAEVNVLLSAGGSA [r2_409_JUSTAS] | 0.681 ± 0.014 kcal/mol | 1.29 ± 0.046 kcal/mol | 1.76 ± 0.032 kcal/mol
9 | SAGGSGMIYVIKIKLEPTIKPGKKKEFEFELVLEATPEEIEEVLEKIKKLPKNIKIKEIKIEVFPESAGGSA [r2_75_TrMRF] | 3.18 ± 0.073 kcal/mol | 2.6 ± 0.32 kcal/mol | 2.08 ± 0.12 kcal/mol
10 | SAGGSGMMLEEGVGVDPTTGELHRFTYLREPERPPVEVTVTTTTVVYTTPDGTTVTVTTTTTLEGGSAGGSA [r2_326_JUSTAS] | 0.786 ± 0.27 kcal/mol | 0.789 ± 0.13 kcal/mol | 0.671 ± 0.047 kcal/mol
11 | SAGGSGMTTTFSKEVSSKEEAEKIFKRGFPDLNAKVTKFDPKKGTVEIELTFPDGKKSKATAPIKKSAGGSA [r2_201_JUSTAS] | 0.0996 ± 0.5 kcal/mol | -0.225 ± 0.37 kcal/mol | -0.569 ± 0.58 kcal/mol
12 | SAGGSGSTTPETRTEPSPGGTTTEVRTDVHTLPDAETVEITVTRGGRTITLTASPAEAATLRVTPGASAGGS [r8_257_JUSTAS] | -0.614 ± 0.62 kcal/mol | -0.436 ± 0.51 kcal/mol | -0.555 ± 0.61 kcal/mol
13 | SAGGSIELPLEEGSTAEVELELRVPFYRLDANGRPVAPEERTLRIRARFTRLPDGRVLVEVEVEVESAGGSA [r2_154_TrMRF] | 5.24 ± 0.1 kcal/mol | 4.98 ± 0.13 kcal/mol | 4.46 ± 0.17 kcal/mol
14 | SAGGSIPADTVATLTLPDRDLAVRVELVDGTPRYLVTGPDGTPVGTLTPEEFAAFVAALPADARLDLRSAGG [r13_657_JUSTAS] | 1.32 ± 0.081 kcal/mol | 1.15 ± 0.068 kcal/mol | 0.7 ± 0.032 kcal/mol
15 | SAGGSIPLSDIKDIEIHPWRHPNNNYPMYRIRIDNGRDMVIFPGAIFEFDPDDGKIEEVKPMPFGDSAGGSA [r2_374_TrROS] | 0.222 ± 0.22 kcal/mol | 0.238 ± 0.14 kcal/mol | 0.165 ± 0.22 kcal/mol
16 | SAGGSIPPGARVETLEVVTSSSSDGTVTTTTLTRVTSPEDSVSERTRTTTDPVVPPPATPTNPVSLASAGGS [r8_90_JUSTAS] | 0.804 ± 0.06 kcal/mol | 0.507 ± 0.053 kcal/mol | -0.0164 ± 0.079 kcal/mol

Row | Sequence | folding stability dG unfold [1] | folding stability dG unfold [2] | folding stability dG unfold [3]
17 | SAGGSISIPVYSPEDVIEAIEFIERYLREKGFPENEEATRIIVERLEDGRYRVIIEYPTRTIIIDDSAGGSA [r2_120_TrMRF] | 3.09 ± 0.033 kcal/mol | 3.01 ± 0.067 kcal/mol | 2.9 ± 0.049 kcal/mol
18 | SAGGSITKTLGTEEKGDKTITYSVTTSPEGKITFTTTTKTPSGSGTSTTTTTTTTPLAGLPLPPLGGSAGGS [r8_458_JUSTAS] | 0.831 ± 0.18 kcal/mol | 0.717 ± 0.19 kcal/mol | 0.473 ± 0.042 kcal/mol
19 | SAGGSKDLEIKITKIKEWDPPNGKQTIRIPIEVYDPENGKPRPPAEELADELQKRFPGMPIKVEPVSAGGSA [r2_27_TrROS] | 0.863 ± 0.028 kcal/mol | 0.441 ± 0.14 kcal/mol | -0.416 ± 0.29 kcal/mol
20 | SAGGSKEKFLTIEHPDYVIKAYVDYPKEGKLRVRIEIYDKNGKLLKTIEVEAYSPEEVLEFLEKAASAGGSA [r2_82_TrMRF] | 3.28 ± 0.13 kcal/mol | 3.05 ± 0.14 kcal/mol | 2.48 ± 0.1 kcal/mol
21 | SAGGSKELKPGDIITFPKSVSEEEIKEKVKELMEKYGIKGIISIEKKSPNSYIVKIEYPDGNPLAISAGGSA [r2_168_JUSTAS] | 1.34 ± 0.081 kcal/mol | 1.72 ± 0.15 kcal/mol | 2.1 ± 0.074 kcal/mol
22 | SAGGSKERTYRVLIRNPDGELEEIEVSEEELEALLSLPPSATVRIVTEDGEEKTVTINVEKVELKESAGGSA [r2_222_TrROS_Hall] | 3.48 ± 0.067 kcal/mol | 3.07 ± 0.17 kcal/mol | 1.74 ± 0.11 kcal/mol
23 | SAGGSKFEVEKLPDNTYRFKVPNENGETLEITVEKLPDGAILVTHPSNPKPVLFPASTTIEDLLKKSAGGSA [r2_338_TrMRF] | 2.22 ± 0.029 kcal/mol | 1.95 ± 0.032 kcal/mol | 1.29 ± 0.029 kcal/mol
24 | SAGGSKGKAPVKVRFLFLEDGKVVAEAEVEFEVEVPIPPVPPVFVPEEARKALENGDIEKALKLLGSAGGSA [r2_196_TrMRF] | 1.58 ± 0.035 kcal/mol | 1.36 ± 0.13 kcal/mol | 0.827 ± 0.036 kcal/mol
25 | SAGGSKKKIEKIEIEIEIKNKDGKTYKIKAEIEKVELKDGKVAKIRLEIYNENGEKIAEFEFEIKISAGGSA [r2_215_TrROS_Hall] | 4.03 ± 0.19 kcal/mol | 3.61 ± 0.23 kcal/mol | 2.08 ± 0.15 kcal/mol
26 | SAGGSKKKKPEKPPVVLIKITVEETGKEITIPLEELRNMSAEELAKRIAEELRERYPGLKVRVEIVSAGGSA [r2_392_TrROS_Hall] | 2.28 ± 0.11 kcal/mol | 2.07 ± 0.17 kcal/mol | 1.49 ± 0.071 kcal/mol
27 | SAGGSKKTIVIPVPPGMSVEQIAAELKAKLEELFPDLKVEVVEVKPDGYVKIKIDGKLILIKFPKPSAGGSA [r2_102_TrROS_Hall] | 3.18 ± 0.042 kcal/mol | 2.77 ± 0.063 kcal/mol | 1.6 ± 0.049 kcal/mol
28 | SAGGSKKVDIKPGKVKKVEVKTLPNGKKLLVLYFPLEDGKEKVVVISSDFKTPEEALEAAYKQLGKSAGGSA [r2_347_TrMRF] | 1.21 ± 0.066 kcal/mol | 1.23 ± 0.21 kcal/mol | 1.02 ± 0.049 kcal/mol
29 | SAGGSKKVKIKITKIEIFPNGTIKVTVKNEDGSEVTITITKNKDGKYKIKIKNKKTKKIFEFEIPLSAGGSA [r2_361_TrROS_Hall] | 3.1 ± 0.06 kcal/mol | 2.8 ± 0.22 kcal/mol | 2.22 ± 0.089 kcal/mol
30 | SAGGSKLPKNSKVLIIDLGAPKGIKPNDKVKIPKELIKKIKEKNPNVKFYKEYNIGNKTYIFIVIDSAGGSA [r2_383_TrMRF] | 2.39 ± 0.059 kcal/mol | 1.96 ± 0.12 kcal/mol | 1.31 ± 0.067 kcal/mol
31 | SAGGSKPKTVEITLEVDGKKVKITVTEKDGKLTVTITFPDGTKLTIELPENMSIEEALKKALEALKSAGGSA [r2_92_TrROS_Hall] | 2.4 ± 0.062 kcal/mol | 2.87 ± 0.096 kcal/mol | 3.28 ± 0.13 kcal/mol

— the supplement of paper PMC12764529
